Common to all, as to assay: cell-based or functional assay
Assay [1] concerns the target T1, hMPV F protein of hMPV CAN/97-83 (genotype A) (human metapneumovirus, UniProt Q6WB98 19-539).
For assay [2], the target named is T2, hMPV F protein of hMPV TN/93-32 (genotype B) (human metapneumovirus).
Assay [3] deals with T1, hMPV F protein of hMPV CAN/97-83 …. The source holds these as a separate data set.
Assay [4] concerns the target T2, hMPV F protein of hMPV TN/93-32 …. The source holds these as a separate data set.

T1 sequence (Q6WB98 19-539): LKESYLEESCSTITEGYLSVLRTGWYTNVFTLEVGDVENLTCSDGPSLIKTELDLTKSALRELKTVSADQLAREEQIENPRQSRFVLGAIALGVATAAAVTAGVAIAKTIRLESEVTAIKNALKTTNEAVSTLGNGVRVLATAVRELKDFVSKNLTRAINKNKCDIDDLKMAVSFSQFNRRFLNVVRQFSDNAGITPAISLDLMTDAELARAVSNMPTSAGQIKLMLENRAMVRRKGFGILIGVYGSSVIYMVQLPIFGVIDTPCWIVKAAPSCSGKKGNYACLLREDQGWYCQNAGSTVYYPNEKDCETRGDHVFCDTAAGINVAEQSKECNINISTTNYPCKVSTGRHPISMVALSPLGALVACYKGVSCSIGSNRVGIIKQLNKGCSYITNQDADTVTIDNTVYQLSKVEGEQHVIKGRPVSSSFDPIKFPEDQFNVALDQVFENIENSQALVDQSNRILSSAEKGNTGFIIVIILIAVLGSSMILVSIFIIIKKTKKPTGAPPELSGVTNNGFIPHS

B1: MPV467 (antibody, V domains shown)
VH: EVQLVESGGGVVRPGTSLRVSCAAFDFNFRDYGMHWVRQAPGKGLEWVAGIWYDGSNKDYADSVKGRFTISRDNSQNTLYLQMNSLRVEDTAVYYCARDPRTHREGALSHFDSWGQGTLVTVSS
VL: PNELTQDPAVSVALGQTVRITCQGDSLRNYFAGWYQQKPGQAPLLVLYGENIRPSGIPDRFSGSSSGNTVSLTITGAQAEDEADYYCNSRDNSGNHWVFGGGTRLTVL
With B1, the “neutralizing activity, plaque-reduction assay” value in assay [1] was less than 20 ng/mL; in assay [2] it was less than 1 ng/mL. Besides, the “IC50, plaque-reduction neutralization of hMPV CAN/97-83” value in assay [3] is 0.005 µg/mL. Besides, in assay [4], the “IC50, plaque-reduction neutralization of hMPV TN/93-32” value amounted to 0.0006 µg/mL.

B2: MPV477 (antibody, V domains shown)
VH: EVQLVQSGAEVKKPGASVEVSCKTSGYTFTDYYLHWVRQAPGQGLEWMGWINPRSGGTKYGQKFQGRVTMTRDTSISTAYMDLRGLRSDDTAVYYCARAPLLTVYAVAHRSGENRFDPWGQGTVTVSS
VL: QPPSLSGAPGQTVTISCTGSGSNIGAGYDVNWYQCLPGTAPKLLMFDNSNRPSGVPDRFSGSRSGASASLAITGLQAEDEADYYCQSYDSGLSGWVFGGGTKLTVL
For the molecule B2, the “fold lower neutralization IC50 than against hMPV TN/93-32” value (“fold lower neutralization IC50 than” below) in assay [1] was no less than 20 fold. The “IC50, plaque-reduction neutralization of hMPV CAN/97-83” value in assay [3] was 0.054 µg/mL. In assay [4], the “IC50, plaque-reduction neutralization of hMPV TN/93-32” value was 2.9 µg/mL.

B3: MPV485 (antibody, V domains shown)
V domain 1: EVQLQEPGPGLVKPSETLSLTCTVSGGSISSTNSFWGWVRQPPGKGLEWIGSIYYSGTTYYNSSLKSRVTISVDTSKNQFSLRLSSVTAADTAVYYCARQGLTSSWYDGSGLDVWG
V domain 2: SYELTQPPSVSVSPGQTASITCSGDKLGNKYACWYQQRPGQSPVLVIYQDTKRPSGIPERFSGSNSGNTATLTISGTQAMDEADYYCQAWDSNTVVFGGGTKLTVL
As for B3, in assay [1], the “fold lower neutralization IC50 than” value was no less than 20 fold. Further, the “IC50, plaque-reduction neutralization of hMPV CAN/97-83” value in assay [3] turned out to be 0.091 µg/mL. Further, in assay [4], the “IC50, plaque-reduction neutralization of hMPV TN/93-32” value stood at 2.6 µg/mL.

B4: MPV86 (antibody, V domains shown)
VH: QVQLVQSGAEVKKPGSSVKVSCKASGDTFNDVALSWVRQAPGQGLEWLGGIIPFFGTANYAQRFQDRVTITADASTSTAYLELGGLRSEDTAVYYCARGWSCRNITCFMMGYYFYIMDVWGQGTLVTVSS
VL: LSLSPGERATLSCRASQSVGNFLAWYQQKPGQTPRLLIQDASNRATGIPARFSGTGSGTDFTLTISSLEPEDFAVYYCQQRSNWPPTFGPGTKVDIK
Turning to B4, the “fold lower neutralization IC50 than” value in assay [1] is no less than 20 fold. The “IC50, plaque-reduction neutralization of hMPV CAN/97-83” value in assay [3] worked out at 0.057 µg/mL. For the same molecule, the “IC50, plaque-reduction neutralization of hMPV TN/93-32” value in assay [4] turned out to be 1.8 µg/mL.

B5: MPV488 (antibody, V domains shown)
VH: EVQLVQSGFEVKKPGASVKVSCKASGYNFNNYGISWVRQAPGQGLEWMGWISAYTGNTNEAQKFQGRVSMTTDTSTSTAYMEVRSLRSDDTAVYYCARDIGSSMFYSYFYGMDVWGQGTTVIVSS
VL: SLSVSLGERATINCKSSESVLYNSNNENYLDWYQQKPGQPPKLLIYWASTRASGVPDRFSGSASGTDFTLTISSLQAEDVAVYYCQQYYSTPRTFGQGTKVEIK
Regarding B5, in assay [1], the “fold lower neutralization IC50 than” value was no less than 20 fold and the “neutralizing activity, plaque-reduction assay” value is less than 20 ng/mL. In assay [3], the “IC50, plaque-reduction neutralization of hMPV CAN/97-83” value worked out at 0.018 µg/mL. The “IC50, plaque-reduction neutralization of hMPV TN/93-32” value in assay [4] is 2.4 µg/mL.

The values are drawn from US20250188153A1 (UNIVERSITY OF GEORGIA RESEARCH FOUNDATION, published 2025).
